Holding throughout (experiment): cell-based or functional assay
In test [1] the target is T1, corticotropin-releasing hormone (CRH) peptide (human and mouse (same sequence), not fully specified).
T1 peptide: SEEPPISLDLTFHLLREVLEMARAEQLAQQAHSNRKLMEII

Test [2] concerns the target T1, corticotropin-releasing hormone (CRH) ….
Test [3] has the same target.

Values joined by “and” are separate entries in the source; they are usually repeats but may differ in a detail not shown here. Equal entries are not always repeated. Where two headings read alike, the source gives them in different places.

B1: PR302341-10 (antibody, human IgG1, kappa, V domains shown)
VH: QVQLVQSGAEVKKPGASVKVSCKASGYTFTDYFMKWVRQAPGQGLEWMGVINPNNGDIFYNQKFKGRVTMTVDKSTSTAYMELSSLRSEDTAVYYCARGTDRALFAYWGQGTLVTVSS
VL: DVVMTQTPLSSPVTLGQPASISCRSGQSIVHSDGNTYLEWYQQRPGQPPRLLIYKVSNRFSGVPDRFSGSGAGTDFTLKISRVEAEDLGVYYCFQGSHIPWTFGGGTKVEIKR
With B1, in test [1], the “hCRHR1 Luciferase Reporter Assay IC50” value came to 0.11 nM and the “mCrhr1 Luciferase Reporter Assay IC50” value was 0.29 nM. Besides, in test [2], the “hCRHR1 Luciferase Reporter Assay IC50” value amounted to 0.342 nM and the “mCrhr1 Luciferase Reporter Assay IC50” value amounted to 1.6 nM.

B2: PR302341-26 (antibody, human IgG1, kappa, V domains shown)
VH: QVQLVQSGAEVKKPGASVKVSCKASGYTFTDYFMKWVRQAPGQGLEWMGVINPNNGDIFYNQKFKGRVTMTVDKSISTAYMELSRLRSDDTAVYYCARGTDRALFAYWGQGTLVTVSS
VL: DVVMTQTPLSSPVTLGQPASISCRSGQSIVHSDGNTYLEWYQQRPGQPPRLLIYKVSNRFSGVPDRFSGSGAGTDFTLKISRVEAEDLGVYYCFQGSHIPWTFGGGTKVEIKR
With B2, in test [1], the “hCRHR1 Luciferase Reporter Assay IC50” value turned out to be 0.273 nM.

B3: PR302341-27 (antibody, human IgG1, kappa, V domains shown)
VH: QVQLVQSGAEVKKPGASVKVSCKASGYTFTDYFMKWVRQAPGQGLEWMGVINPNNGDIFYNQKFKGRVTMTVDKSISTAYMELSRLRSDDTAVYYCARGTDRALFAYWGQGTLVTVSS
VL: DVVMTQTPLSLSVTPGQPASISCRSGQSIVHSDGNTYLEWYLQKPGQSPQLLIYKVSNRFSGVPDRFSGSGSGTDFTLKISRVEAEDLGVYYCFQGSHIPWTFGGGTKVEIKR
For B3, in test [1], the “hCRHR1 Luciferase Reporter Assay IC50” value came to 0.518 nM.

B4: PR302341-25 (antibody, human IgG1, kappa, V domains shown)
VH: QVQLVQSGAEVKKPGASVKVSCKASGYTFTDYFMKWVRQAPGQRLEWMGVINPNNGDIFYNQKFKGRVTITVDKSASTAYMELSSLRSEDTAVYYCARGTDRALFAYWGQGTLVTVSS
VL: DVVMTQTPLSLSVTPGQPASISCRSGQSIVHSDGNTYLEWYLQKPGQSPQLLIYKVSNRFSGVPDRFSGSGSGTDFTLKISRVEAEDLGVYYCFQGSHIPWTFGGGTKVEIKR
For the molecule B4, the “hCRHR1 Luciferase Reporter Assay IC50” value in test [1] came to 0.711 nM.

B5: PR302341-24 (antibody, human IgG1, kappa, V domains shown)
VH: QVQLVQSGAEVKKPGASVKVSCKASGYTFTDYFMKWVRQAPGQRLEWMGVINPNNGDIFYNQKFKGRVTITVDKSASTAYMELSSLRSEDTAVYYCARGTDRALFAYWGQGTLVTVSS
VL: DVVMTQTPLSSPVTLGQPASISCRSGQSIVHSDGNTYLEWYQQRPGQPPRLLIYKVSNRFSGVPDRFSGSGAGTDFTLKISRVEAEDLGVYYCFQGSHIPWTFGGGTKVEIKR
On to B5, for which, in test [1], the “hCRHR1 Luciferase Reporter Assay IC50” value was found to be 0.192 nM and the “mCrhr1 Luciferase Reporter Assay IC50” value is 0.156 nM.

B6: PR302334 (antibody, human IgG1, kappa, V domains shown)
VH: EVKLVESGGGLVKPGGSLKLSCAASGFTFSTYAMSWVRQTPEKRLEWVASIRSGGTTYYPDSVKGRFTISRDNARNILYLQMSSLRSEDTAIYYCTRGIDWGQGTLVTVSA
VL: NIVMTQTPKFLLVSAGDRITITCKASQSVNNDVAWYQQKPGQSPKLLIYYASNRYTGVPDRFTGSGYGTDFTFTISTVQAEDLAVYFCQQDYSSWTFGGGTNLEIKR
Consider B6, for which, in test [3], the “hCRHR1 Luciferase Reporter Assay IC50” value was 0.26 nM and 0.644 nM; the “mCrhr1 Luciferase Reporter Assay IC50” value came out at 0.672 nM.

B7: PR302334-3 (antibody, human IgG1, kappa, V domains shown)
VH: EVKLVESGGGLVKPGGSLKLSCAASGFTFSTYAMSWVRQTPEKRLEWVASIRSGGTTYYPDSVKGRFTISRDNARNILYLQMSSLRSEDTAIYYCTRGIDWGQGTLVTVSA
VL: DIVMTQSPDSLAVSLGERATINCKASQSVNNDVAWYQQKPGQPPRLLIYYASNRYTGVPDRFSGSGSGTDFTLTISSLQAEDVAVYYCQQDYSSWTFGGGTKVEIKR
With B7, the “hCRHR1 Luciferase Reporter Assay IC50” value in test [3] turned out to be 0.542 nM.

B8: PR302334-1 (antibody, human IgG1, kappa, V domains shown)
VH: EVKLVESGGGLVKPGGSLKLSCAASGFTFSTYAMSWVRQTPEKRLEWVASIRSGGTTYYPDSVKGRFTISRDNARNILYLQMSSLRSEDTAIYYCTRGIDWGQGTLVTVSA
VL: EIVMTQSPATLSVSPGERATLSCKASQSVNNDVAWYQQKPGQAPRLLIYYASNRYTGIPARFSGSGSGTEFTLTISSLQSEDFAVYYCQQDYSSWTFGGGTKVEIKR
B8: in test [3], the “hCRHR1 Luciferase Reporter Assay IC50” value worked out at 0.624 nM.

B9: PR302334-6 (antibody, human IgG1, kappa, V domains shown)
VH: EVKLVESGGGLVKPGGSLKLSCAASGFTFSTYAMSWVRQTPEKRLEWVASIRSGGTTYYPDSVKGRFTISRDNARNILYLQMSSLRSEDTAIYYCTRGIDWGQGTLVTVSA
VL: DIQMTQSSLSASVSLGDRVTITCKASQSVNNDVAWYQQKPGKAPRLLIYYASNRYTGVPSRFSGSGSGTDFTFTISSLQPEDLATYFCQQDYSSWTFGGGTKVEIKR
On to B9, for which the “hCRHR1 Luciferase Reporter Assay IC50” value in test [3] was 0.404 nM.

B10: PR302334-2 (antibody, human IgG1, kappa, V domains shown)
VH: EVKLVESGGGLVKPGGSLKLSCAASGFTFSTYAMSWVRQTPEKRLEWVASIRSGGTTYYPDSVKGRFTISRDNARNILYLQMSSLRSEDTAIYYCTRGIDWGQGTLVTVSA
VL: EIVMTQSPATLSVSPGERATLSCKASQSVNNDVAWYQQKPGQAPRLLIYYASNRYTGIPARFSGSGSGTEFTLTISSLQSEDLAVYFCQQDYSSWTFGGGTKVEIKR
In the case of B10, the “hCRHR1 Luciferase Reporter Assay IC50” value in test [3] stood at 0.597 nM.

B11: PR302334-5 (antibody, human IgG1, kappa, V domains shown)
VH: EVKLVESGGGLVKPGGSLKLSCAASGFTFSTYAMSWVRQTPEKRLEWVASIRSGGTTYYPDSVKGRFTISRDNARNILYLQMSSLRSEDTAIYYCTRGIDWGQGTLVTVSA
VL: DIQMTQSSLSASVSLGDRVTITCKASQSVNNDVAWYQQKPGKAPRLLIYYASNRYTGVPSRFSGSGSGTDFTFTISSLQPEDIATYYCQQDYSSWTFGGGTKVEIKR
Regarding B11, the “hCRHR1 Luciferase Reporter Assay IC50” value in test [3] came to 0.325 nM.

B12: PR302334-4 (antibody, human IgG1, kappa, V domains shown)
VH: EVKLVESGGGLVKPGGSLKLSCAASGFTFSTYAMSWVRQTPEKRLEWVASIRSGGTTYYPDSVKGRFTISRDNARNILYLQMSSLRSEDTAIYYCTRGIDWGQGTLVTVSA
VL: DIVMTQSPDSLAVSLGERATINCKASQSVNNDVAWYQQKPGQPPRLLIYYASNRYTGVPDRFSGSGSGTDFTLTISSLQAEDLAVYFCQQDYSSWTFGGGTKVEIKR
Regarding B12, the “hCRHR1 Luciferase Reporter Assay IC50” value in test [3] was 0.553 nM.

B13: PR302334-7 (antibody, human IgG1, kappa, V domains shown)
VH: EVQLVESGGGLVQPGGSLRLSCAASGFTFSTYAMSWVRQAPGKGLEWVASIRSGGTTYYPDSVKGRFTISRDNSKNTLYLQMNSLRAEDTAVYYCTRGIDWGQGTTVTVSS
VL: EIVMTQSPATLSVSPGERATLSCKASQSVNNDVAWYQQKPGQAPRLLIYYASNRYTGIPARFSGSGSGTEFTLTISSLQSEDFAVYYCQQDYSSWTFGGGTKVEIKR
In the case of B13, the “hCRHR1 Luciferase Reporter Assay IC50” value in test [3] amounted to 0.996 nM.

B14: PR302334-9 (antibody, human IgG1, kappa, V domains shown)
VH: EVQLVESGGGLVQPGGSLRLSCAASGFTFSTYAMSWVRQAPGKGLEWVASIRSGGTTYYPDSVKGRFTISRDNSKNTLYLQMNSLRAEDTAVYYCTRGIDWGQGTTVTVSS
VL: DIVMTQSPDSLAVSLGERATINCKASQSVNNDVAWYQQKPGQPPRLLIYYASNRYTGVPDRFSGSGSGTDFTLTISSLQAEDVAVYYCQQDYSSWTFGGGTKVEIKR
As to B14, the “hCRHR1 Luciferase Reporter Assay IC50” value in test [3] stood at 1.42 nM.

B15: PR302334-8 (antibody, human IgG1, kappa, V domains shown)
VH: EVQLVESGGGLVQPGGSLRLSCAASGFTFSTYAMSWVRQAPGKGLEWVASIRSGGTTYYPDSVKGRFTISRDNSKNTLYLQMNSLRAEDTAVYYCTRGIDWGQGTTVTVSS
VL: EIVMTQSPATLSVSPGERATLSCKASQSVNNDVAWYQQKPGQAPRLLIYYASNRYTGIPARFSGSGSGTEFTLTISSLQSEDLAVYFCQQDYSSWTFGGGTKVEIKR
As to B15, in test [3], the “hCRHR1 Luciferase Reporter Assay IC50” value is 0.816 nM and the “mCrhr1 Luciferase Reporter Assay IC50” value came to 2.61 nM.

B16: PR302334-10 (antibody, human IgG1, kappa, V domains shown)
VH: EVQLVESGGGLVQPGGSLRLSCAASGFTFSTYAMSWVRQAPGKGLEWVASIRSGGTTYYPDSVKGRFTISRDNSKNTLYLQMNSLRAEDTAVYYCTRGIDWGQGTTVTVSS
VL: DIVMTQSPDSLAVSLGERATINCKASQSVNNDVAWYQQKPGQPPRLLIYYASNRYTGVPDRFSGSGSGTDFTLTISSLQAEDLAVYFCQQDYSSWTFGGGTKVEIKR
For the molecule B16, in test [3], the “hCRHR1 Luciferase Reporter Assay IC50” value is 0.839 nM and the “mCrhr1 Luciferase Reporter Assay IC50” value amounted to 2.66 nM.

B17: PR302341 (antibody, human IgG1, kappa, V domains shown)
VH: EVQLQQSGPELVKPGASVKMSCKASGYTFTDYFMKWVKQSHGESLEWIGVINPNNGDIFYNQKFKGKATLTVDKSSSTAFMQLNSLTSEDSAVYSCARGTDRALFAYWGQGTLVAVSA
VL: DVLMTQTPLSLPVSLGDQASISCRSGQSIVHSDGNTYLEWYLQRPGQSPRLLIYKVSNRFSGVPDRFSGSGSGTDFTLKISRVGAEDLGIYYCFQGSHIPWTFGGGTKLEVKR
For the molecule B17, the “mCrhr1 Luciferase Reporter Assay IC50” value in test [1] worked out at 0.611 nM. For the same molecule, in test [2], the “hCRHR1 Luciferase Reporter Assay IC50” value came to 0.437 nM and the “mCrhr1 Luciferase Reporter Assay IC50” value was 1.71 nM.

B18: PR302341-20 (antibody, human IgG1, kappa, V domains shown)
VH: QVQLVQSGAEVKKPGASVKVSCKASGYTFTDYFMKWVRQAPGQRLEWMGVINPNNGDIFYNQKFKGRVTITRDTSASTAYMELSSLRSEDTAVYYCARGTDRALFAYWGQGTLVTVSS
VL: DVVMTQSPLSLPVTLGQPASISCRSGQSIVHSDGNTYLEWYQQRPGQSPRLLIYKVSNRFSGVPDRFSGSGSGTDFTLKISRVEAEDLGVYYCFQGSHIPWTFGGGTKVEIKR
As to B18, the “hCRHR1 Luciferase Reporter Assay IC50” value is 0.162 nM in test [1] and 0.188 nM in test [2]. Moreover, the “mCrhr1 Luciferase Reporter Assay IC50” value in test [1] worked out at 0.451 nM; in test [2] it was 1.62 nM.

B19: PR302341-23 (antibody, human IgG1, kappa, V domains shown)
VH: QVQLVQSGAEVKKPGASVKVSCKASGYTFTDYFMKWVRQAPGQGLEWMGVINPNNGDIFYNQKFKGRVTMTVDKSISTAYMELSRLRSDDTAVYYCARGTDRALFAYWGQGTLVTVSS
VL: DVVMTQSPLSLPVTLGQPASISCRSGQSIVHSDGNTYLEWYQQRPGQSPRLLIYKVSNRFSGVPDRFSGSGSGTDFTLKISRVEAEDLGVYYCFQGSHIPWTFGGGTKVEIKR
Take B19: the entries for the “hCRHR1 Luciferase Reporter Assay IC50” value in test [1] and in test [2] were 0.043 nM and 0.351 nM, respectively. The figures for the “mCrhr1 Luciferase Reporter Assay IC50” value in test [1] and in test [2] were 0.111 nM and 1.19 nM, respectively.

The values above are taken from US20260042834A1 (HBM ALPHA THERAPEUTICS, published 2026).
